Results on five molecules are retold here after patent US20110189284A1, “Peptide Fibres” (UNIVERSITY OF BRISTOL, priority 2009, published 2011).

One series deals with PC12 cells. Put plainly: Alamar Blue cell-proliferation assay. Type of series: cell-based, rat. The following applies: cells on collagen; peptide 0.5-2.5 mM total; 72 hours. On the procedure: PC12 cells were exposed to different concentrations of hSAFAAA-W peptides (from 0.5 mM to 2.5 mM). Results are expressed as percentage of fluorescence from cells incubated with hSAFAAA-W versus no-peptide controls (100%). Mean+/−s.d. mean for n=3 experiments. […] Staurosporine was used to establish definite cell death.
Rat adrenal pheochromocytoma (PC12) cells and the subclone Neuroscreen-1 (NS-1) cells (ThermoFisher Scientific Cellomics) were used. Cells were maintained at 37° C., 5% CO2 in cell-culture medium comprising: Dulbecco's Modified Eagle Media (DMEM, Invitrogen) supplemented with 10% (v/v) horse serum (Sigma), 5% (v/v), fetal bovine serum (Sigma), 1% (v/v) penicillin/streptomycin solution (Sigma), and 2 mM L-glutamine (Invitrogen). […] The fluorescence (excitation, 560 nm; emission, 590 nm) of 100 μl samples was measured. The ratio of the fluorescence intensities to that for a no-peptide control wells was taken as a measure of cell proliferation. […] Cell morphology was followed up using Leica Microsystem Wetzlar GmbH (090-135.001) and images recorded using Canon PowerShot S70 7.1 megapixels. […]
(Resazurin is reduced to fluorescent resorufin, in cell work by metabolically active cells.)

Series [1] can be described thus: Particle-tracking microrheology (PTM) of gel strength versus temperature. Type of series: physicochemical. Particulars: as a function of temperature. The method, then:
Gel strength was probed using particle-tracking microrheology (PTM), in order to detect any difference between the behaviour of the material at the bulk and micro scales. PTM is a non-invasive technique for measuring local viscoelasticity in complex fluids (Cicuta & Donald, 2007). PTM directly observes the motion of embedded probe particles via optical microscopy. The mean square displacement (MSD) of the particles is calculated and related to the viscoelastic modulus of the sample using a Generalised Stokes-Einstein Relation (Mason, 2000; Hasnain & Donald, 2006). […] The spatial information for individual probe particles can be used to quantify the degree of heterogeneity in the system (Houghton et al., 2008).
Experiments were carried out using a Zeiss LSM 510 confocal microscope operated in bright-field mode with a 50× objective. […] Videos were captured in uncompressed avi format at 640×480 resolution and analysed using custom-written Matlab scripts. Viscoelastic moduli were calculated by taking Laplace Transform of the MSD and using GSER. […]
To confirm and quantify the gel strengths, the storage (G′) and loss (G″) moduli were recorded as a function of temperature using both microrheology (FIG. 3) and bulk oscillatory rheology, FIG. 4a. […]

The target of another series is T1, hSAFAAQ p2.
T1 construct: Second peptide of the control pair hSAFAAQ
T1 peptide: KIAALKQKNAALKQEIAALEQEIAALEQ
Put plainly: summary of microscopy of the mixed peptides.

Another series concerns the target T2, hSAFQQQ p2.
T2 construct: Second peptide of the hSAFQQQ pair; also called peptide f)
T2 peptide: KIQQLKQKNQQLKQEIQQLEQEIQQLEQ
Put plainly: complementary peptides mixed on ice at 1 mM each; vial inversion gel test. The method, then:
(§1) Complementary hSAF peptides were mixed on ice, and either allowed to assemble at this temperature for 30 minutes, or removed after 5 minutes and incubated for 25 minutes at 20° C. After these times, to test for gel formation, sample vials were inverted and incubated for a further 30 minutes without changing the temperature (FIG. 2). Through this simple test, hSAFAAA and hSAFQQQ both formed self-supporting gels. hSAFQQQ formed a gel at low temperature, which melted on warming; whereas, the hSAFAAA appeared to form a weak gel at low temperature that strengthened on warming.

In another series the target is T3, hSAFAAA p2.
T3 construct: Second peptide of the hSAFAAA pair; also called peptide b)
T3 peptide: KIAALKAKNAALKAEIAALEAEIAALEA
Described as above. On the procedure:
as §1

For the molecule `CN[C@@H]1C[C@H]2O[C@@](C)([C@@H]1OC)n1c3ccccc3c3c4c(c5c6ccccc6n2c5c31)C(=O)NC4` [staurosporine], the “cell proliferation / death versus no-peptide controls” value in the series with PC12 cells was “died”.
For “KIAALKAKNAALKAEIAALEAEIAALEA [hSAFAAA p2]”, in series [1], the “gel state by PTM” value was “formed a weak gel detectable by PTM”.
Take KIAALKQKIAALKQEIAALEQENAALEQ [hSAFAAQ p1]: in the series with hSAFAAQ p2, the binding result is “binds”.

B1: hSAFQQQ p1 (peptide)
peptide: KIQQLKQKIQQLKQEIQQLEQENQQLEQ
notes: First peptide of the hSAFQQQ pair; also called peptide e)
Consider B1, for which, in the series with hSAFQQQ p2, the binding result is on record as “binds”.

B2: hSAFAAA p1 (peptide)
peptide: KIAALKAKIAALKAEIAALEAENAALEA
notes: First peptide of the hSAFAAA pair; many copies assemble with p2 into a staggered heterodimer coiled-coil fibril; also called peptide a)
As to B2, the binding result with hSAFAAA p2 was “binds”.
